Data on 5 molecules can be found in patent US20180280551A1 (published 2018).

In assay [1] the target is T1, CD11b (mouse), on the CD11b+ mutuDC dendritic cell line and on cells of lymphoid organs (mouse, UniProt P05555 17-1153).
T1 construct: whole, on cells; Its partner chain on the cell surface is not mentioned
The experiment in a line: FACS, CD11b+ mutuDC dendritic cell line stained in vitro with Alexa647-labeled DC13 monomer or dimer; reference DC13 monomer. From the text:
Cells were harvested and analyzed with FACS.
Four sortase substrates were designed and synthesized for production of dimers or PEGylated VHHs (FIG. 1). The substrates either contain two bioorthogonal handles or a handle and a flourophore. The Alexa647-labeled substrate was designed such that the reaction products could be used in FACS experiments to estimate relative in vitro binding affinities. […] The dimers were produced as exemplified in FIG. 2. For DC8 (anti Class II), splenocytes were stained with different concentrations of monomers and dimers and analyzed by FACS. For DC13 (anti CD11b), the CD11b⁺ mutuDC dendritic cell line was used. For Class II MHC and CD11b, VHH dimers bind approximately 3.3 and 2.3-fold better than their corresponding monomers respectively (FIG. 3). The in vivo binding characteristics of the VHH dimers versus monomers were evaluated. Due to the more abundant expression of Class II MHC molecules on splenocytes compared to that of CD11b, the in vivo binding affinity for anti-Class II dimers was explored. Mice were injected i.v. with equal amounts of monomers and dimers (0.25 nmol) of DC8. 2 h p.i., mice were euthanized and lymphoid organs were excised for examination. Monomers and dimers yielded different staining patterns (FIG. 3B), with the dimer showing interspersed yet more pronounced staining than the monomer, corroborating the FACS results. […]
Background: Flow cytometry measures light scatter and fluorescence of single cells or particles in a stream.

Assay [2] deals with Class II MHC (mouse), on splenocytes and lymphoid organ cells (mouse). The experiment in a line: FACS, splenocytes stained in vitro with different concentrations of Alexa647-labeled DC8 monomer or dimer; reference DC8 monomer.
Assay [3] has the same target. The experiment in a line: FACS of spleen cells harvested 3 h after i.v. injection of Alexa647-labeled VHH into B6 mice; reference non-PEGylated DC8-Alexa647; no staining in the spleen of an MHC II-/- mouse.
Assay [4] shares this target. The experiment in a line: FACS of spleen cells harvested 3 h after i.v. injection of Alexa647-labeled VHH into B6 mice; reference non-PEGylated DC8-Alexa647.

Class II MHC (mouse), on splenocytes and lymphoid organ cells (mouse), sequence (P14434 24-256, chain 1 of 2): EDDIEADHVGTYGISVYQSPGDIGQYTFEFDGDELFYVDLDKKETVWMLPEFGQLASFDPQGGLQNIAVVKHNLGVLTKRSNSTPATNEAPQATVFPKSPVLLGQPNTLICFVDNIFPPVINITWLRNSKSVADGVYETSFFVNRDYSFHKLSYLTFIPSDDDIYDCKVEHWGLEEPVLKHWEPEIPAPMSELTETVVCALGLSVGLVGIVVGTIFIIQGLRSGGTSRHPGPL
Class II MHC (mouse), on splenocytes and lymphoid organ cells (mouse), sequence (P14483 28-265, chain 2 of 2, further chain): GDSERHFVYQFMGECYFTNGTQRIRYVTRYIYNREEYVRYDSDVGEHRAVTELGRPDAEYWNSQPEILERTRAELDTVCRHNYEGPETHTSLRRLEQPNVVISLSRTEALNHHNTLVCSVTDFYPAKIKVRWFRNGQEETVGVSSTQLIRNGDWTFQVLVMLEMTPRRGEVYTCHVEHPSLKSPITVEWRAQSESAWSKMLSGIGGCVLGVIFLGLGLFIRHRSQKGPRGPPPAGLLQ
T1 sequence (P05555 17-1153): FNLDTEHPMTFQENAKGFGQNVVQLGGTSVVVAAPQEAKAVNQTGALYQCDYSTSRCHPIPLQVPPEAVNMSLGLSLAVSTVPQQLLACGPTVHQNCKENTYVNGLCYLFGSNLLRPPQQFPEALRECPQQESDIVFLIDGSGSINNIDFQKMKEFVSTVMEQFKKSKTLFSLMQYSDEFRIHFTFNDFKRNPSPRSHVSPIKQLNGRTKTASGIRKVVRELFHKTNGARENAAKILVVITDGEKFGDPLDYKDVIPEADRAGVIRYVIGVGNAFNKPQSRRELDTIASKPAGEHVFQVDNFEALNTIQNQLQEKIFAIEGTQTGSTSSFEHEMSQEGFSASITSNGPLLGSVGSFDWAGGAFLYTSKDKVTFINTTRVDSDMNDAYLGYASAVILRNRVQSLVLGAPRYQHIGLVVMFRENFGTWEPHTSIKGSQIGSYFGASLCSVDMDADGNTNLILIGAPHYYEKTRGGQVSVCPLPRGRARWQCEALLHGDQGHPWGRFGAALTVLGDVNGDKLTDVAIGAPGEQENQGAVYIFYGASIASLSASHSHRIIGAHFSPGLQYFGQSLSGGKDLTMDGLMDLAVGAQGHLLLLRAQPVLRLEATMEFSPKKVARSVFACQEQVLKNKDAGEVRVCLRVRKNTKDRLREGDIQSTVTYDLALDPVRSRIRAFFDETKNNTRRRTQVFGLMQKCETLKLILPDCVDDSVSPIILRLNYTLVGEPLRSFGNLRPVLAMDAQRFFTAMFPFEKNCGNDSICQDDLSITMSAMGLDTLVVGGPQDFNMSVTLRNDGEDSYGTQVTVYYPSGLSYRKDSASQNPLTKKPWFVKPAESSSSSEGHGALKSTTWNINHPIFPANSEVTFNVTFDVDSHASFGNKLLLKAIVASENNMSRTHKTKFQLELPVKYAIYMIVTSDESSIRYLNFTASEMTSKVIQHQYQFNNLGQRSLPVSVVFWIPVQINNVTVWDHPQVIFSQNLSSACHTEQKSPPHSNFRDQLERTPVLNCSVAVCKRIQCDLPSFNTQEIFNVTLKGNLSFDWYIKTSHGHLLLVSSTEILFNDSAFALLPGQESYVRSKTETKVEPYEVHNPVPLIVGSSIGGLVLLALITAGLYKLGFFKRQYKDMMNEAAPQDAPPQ

B1: DC13-dimer (bivalent DC13, two DC13 VHHs joined through their C-termini) (VHH)
VHH: QVQLQESGGGLVQTGGSLRLSCAASGVDFNWYSMGWFRQAPGKEREYVASIDQGGELDYAISVKGRFTISRDNAKNMVYLQMNSLKPEDTAVYYCAADFSGRGASNPDKYKYWGQGTQVTVSS
modifications: Each chain is sortagged at LPET. One carries (Gly)3-Cys(maleimide-DBCO), the other (Gly)3-PEG12-Cys(X)-PEG5-Lys(azide), where X is Alexa647, Texas Red or TCO/18F-tetrazine. The two chains are joined C-terminus to C-terminus by DBCO-azide click chemistry.
notes: This is a chemical C-to-C dimer; also called anti CD11b dimer; 18F-DC13 dimer
Consider B1, for which the “fold better binding than the corresponding monomer” value in assay [1] is approximately 2.3 fold.

B2: DC8-dimer (bivalent DC8, two DC8 VHHs joined through their C-termini) (VHH)
VHH: QVQLQESGGGLVQPGGSLRLSCTASGFTFSTYYMSWVRKAPGKGPEWVSVMNSSGGDTRYADFVKGRFTISRDNAKNTLYLQMNSLKPEDTALYYCAQGRSDIYPTFTRGQGTQVTVSS
modifications: Each chain is sortagged at LPET. One carries (Gly)3-Cys(maleimide-DBCO), the other (Gly)3-PEG12-Cys(X)-PEG5-Lys(azide), where X is Alexa647, Texas Red or TCO/18F-tetrazine. The two chains are joined C-terminus to C-terminus by DBCO-azide click chemistry.
For B2, the fold better binding than the corresponding monomer in assay [2] is 3.3 fold.

B3: DC8-Alexa647-PEG-20 kDa (PEGylated DC8, 20 kDa PEG) (VHH)
VHH: QVQLQESGGGLVQPGGSLRLSCTASGFTFSTYYMSWVRKAPGKGPEWVSVMNSSGGDTRYADFVKGRFTISRDNAKNTLYLQMNSLKPEDTALYYCAQGRSDIYPTFTRGQGTQVTVSS
modifications: Sortagged at LPET with (Gly)3-PEG12-Cys(X)-PEG5-Lys(azide), where X is Alexa647, Texas Red or TCO/18F-tetrazine. DBCO-PEG 20 kDa is clicked onto the azide.
Regarding B3, the increase in staining versus non-PEGylated DC8 in assay [3] was 220%.

B4: DC8-Alexa647-PEG-10 kDa (PEGylated DC8, 10 kDa PEG) (VHH)
VHH: QVQLQESGGGLVQPGGSLRLSCTASGFTFSTYYMSWVRKAPGKGPEWVSVMNSSGGDTRYADFVKGRFTISRDNAKNTLYLQMNSLKPEDTALYYCAQGRSDIYPTFTRGQGTQVTVSS
modifications: Sortagged at LPET with (Gly)3-PEG12-Cys(X)-PEG5-Lys(azide), where X is Alexa647, Texas Red or TCO/18F-tetrazine. DBCO-PEG 10 kDa is clicked onto the azide.
In assay [4], B4 registered an increase in staining versus non-PEGylated DC8 of 100%.

B5: DC8-Alexa647-PEG-5 kDa (PEGylated DC8, 5 kDa PEG) (VHH)
VHH: QVQLQESGGGLVQPGGSLRLSCTASGFTFSTYYMSWVRKAPGKGPEWVSVMNSSGGDTRYADFVKGRFTISRDNAKNTLYLQMNSLKPEDTALYYCAQGRSDIYPTFTRGQGTQVTVSS
modifications: Sortagged at LPET with (Gly)3-PEG12-Cys(X)-PEG5-Lys(azide), where X is Alexa647, Texas Red or TCO/18F-tetrazine. DBCO-PEG 5 kDa is clicked onto the azide.
In the case of B5, in assay [4], the increase in staining versus non-PEGylated DC8 was determined as 30%.
